Measured values published in PMC9054013 (2022).

Columns and labels:
Assay in all cases: ITC
[1] = target: AP2 α-appendage (residues 695 to 938) (UniProt P17427 695-938)
FCHO2-N1+N2 E336A+F339S = FCHO2-N1+N2 E336A+F339S (human, UniProt Q0JRZ9-1 314-394, E336A | F339S)
FCHO2-N1+N2 EEK mutant = FCHO2-N1+N2 EEK mutant (human, UniProt Q0JRZ9-1 314-394, E320S | E321S | K326S)

Chain of AP2 α-appendage (residues 695 to 938) (P17427 695-938): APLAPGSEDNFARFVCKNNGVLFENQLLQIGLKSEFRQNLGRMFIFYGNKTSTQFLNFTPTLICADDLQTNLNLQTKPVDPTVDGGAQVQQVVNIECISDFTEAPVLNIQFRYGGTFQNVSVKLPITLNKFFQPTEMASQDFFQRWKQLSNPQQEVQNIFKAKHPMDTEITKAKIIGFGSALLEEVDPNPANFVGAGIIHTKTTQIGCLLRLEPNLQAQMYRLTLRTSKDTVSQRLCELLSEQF

QSEEQVSKNLFGPPLESAFDHED [FCHO1 C peptide (residues 426 to 448)] gave a Kd [1] of 44 µM.

B1: Cμ2 (μ2 residues 160 to 435) (domain or fragment)
chain: GWRREGIKYRRNELFLDVLESVNLLMSPQGQVLSAHVSGRVVMKSYLSGMPECKFGMNDKIVIEKQGKGTADETSKSGKQSIAIDDCTFHQCVRLSKFDSERSISFIPPDGEFELMRYRTTKDIILPFRVIPLVREVGRTKLEVKVVIKSNFKPSLLAQKIEVRIPTPLNTSGVQVICMKGKAKYKASENAIVWKIKRMAGMKESQISAEIELLPTNDKKKWARPPISMNFEVPFAPSGLKVRYLKVFEPKLNYSDHDVIKWVRYIGRSGIYETRC
In the case of B1, the Kd (FCHO2-N1+N2 E336A+F339S) is reported as 55 µM and the Kd (FCHO2-N1+N2 EEK mutant) is reported as 110 µM.
